The text below walks through data of patent US20250177447A1.

The test has as its target G protein-coupled receptor class C group 5 member D (GPRC5D) on tumor cells (MM.1S, RPMI8226, NCI-H929) (human) (UniProt Q9NZD1). The test is described as follows: cell-based or functional assay.
Sequence of UniProt Q9NZD1 (Q9NZD1 whole entry): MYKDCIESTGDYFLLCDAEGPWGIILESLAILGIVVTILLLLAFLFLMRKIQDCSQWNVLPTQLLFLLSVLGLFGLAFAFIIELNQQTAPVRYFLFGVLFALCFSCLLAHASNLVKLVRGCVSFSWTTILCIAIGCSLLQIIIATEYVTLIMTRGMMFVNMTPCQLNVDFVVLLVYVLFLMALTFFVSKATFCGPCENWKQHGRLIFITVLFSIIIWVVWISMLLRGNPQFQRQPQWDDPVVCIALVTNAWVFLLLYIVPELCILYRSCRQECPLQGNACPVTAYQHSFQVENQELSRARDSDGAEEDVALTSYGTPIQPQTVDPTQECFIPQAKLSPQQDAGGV

B1: CAR1, GPRC5D chimeric antigen receptor (CAR 1 (VL-VH)), expressed on human T cells (protein, part only; not given: CAR backbone and scFv linker, not shown: small tags and cut ends)
chain, part: SSELTQDPAASVALGQTVRITCQGDSVRTYYAGWYQQKPGQAPVLVIYGKNHRPSGIPDRFSGSTSGNTASLTITGVQAEDEADYYCNSRDSSANPVFGGGTKVTVLQVQLVQSGAEVKKPGASVKVSCKASGYTFTSYYMHWVRQAPGQGLEWMGWINPNSGGTNYAQKFQGRVTITADKSTSTAYMELNSLRAEDTAVYYCVRSKGRAARNYYYMDVWGKGTTVTVSS
Molecule B1 displayed a % survival of MM.1S-ffluc cells, luciferase cytotoxicity assay, 24 h, E:T 1:1 of 20%; a % survival of MM.1S-ffluc cells, luciferase cytotoxicity assay, 24 h, E:T 1:2 of 60%; a % survival of MM.1S-ffluc cells, luciferase cytotoxicity assay, 24 h, E:T 1:4 of 88%; a % survival of RPMI8226-ffluc cells, luciferase cytotoxicity assay, 24 h, E:T 1:1 of 12%. The molecule also registered a % survival of RPMI8226-ffluc cells, luciferase cytotoxicity assay, 24 h, E:T 1:2 of 40%; a % survival of RPMI8226-ffluc cells, luciferase cytotoxicity assay, 24 h, E:T 1:4 of 70%; a % survival of RPMI8226-ffluc cells, luciferase cytotoxicity assay, 24 h, E:T 1:8 of 90%.

B2: CAR2, GPRC5D chimeric antigen receptor (CAR 2 (VL-VH)), expressed on human T cells (protein, part only; not given: CAR backbone and scFv linker, not shown: small tags and cut ends)
chain, part: SSELTQDPAASVALGQTVKITCQGDSLRRYFASWYQQKPGQAPTLVTYGKNRRPSGVPDRLSGSSSGDTASLTITGAQAEDEGDYYCNSRDRSGTVVFGGGTKLTVLEVQLVESGGGVVQPGRSLRLSCAASGFTFSSYAMSWVRQAPGKGLEWVSAISGSGGSTYYAGSVKGRFTISRDNSKNTLYLQMNSLRAEDTAVYYCARDLYGYRYYYYGMDVWGQGTMVTVSS
B2 came in with a % survival of MM.1S-ffluc cells, luciferase cytotoxicity assay, 24 h, E:T 1:1 of less than 5%; a % survival of MM.1S-ffluc cells, luciferase cytotoxicity assay, 24 h, E:T 1:2 of 15%; a % survival of MM.1S-ffluc cells, luciferase cytotoxicity assay, 24 h, E:T 1:4 of 35%; a % survival of MM.1S-ffluc cells, luciferase cytotoxicity assay, 24 h, E:T 1:8 of 85%. Also, the % survival of RPMI8226-ffluc cells, luciferase cytotoxicity assay, 24 h, E:T 1:1 was 3%; the % survival of RPMI8226-ffluc cells, luciferase cytotoxicity assay, 24 h, E:T 1:2 was 10%; the % survival of RPMI8226-ffluc cells, luciferase cytotoxicity assay, 24 h, E:T 1:4 was 25%; the % survival of RPMI8226-ffluc cells, luciferase cytotoxicity assay, 24 h, E:T 1:8 was determined as 50%.
